Experimental data as given in the MegaScale stability set (Tsuboyama et al. 2023).

B1: EEHEE_rd3_1049 (parent)
chain: TTVKLGDIKVTFDNPEKAKKYAQKLAKIYQLTVHVHGDTIHVK

Variants of: B1
Experiment: folding stability dG (cDNA display proteolysis); higher = more stable
Conditions: PBS, room temperature

| Variant | folding stability dG |
| --- | --- |
| TTVKLGDIKVTFDNPEKAKKYAQKLAKIYQLTVHVHGDTIHVM [K43M] | 2.56 kcal/mol |
| TTVKLGDIKVTFDNPEKAKKYAQKLAKIYQLTVHVHGDTIHVF [K43F] | 2.85 kcal/mol |
| TTVKLGDIKVTFDNPEKAKKYAQKLAKIYQLTVHVHGDTIHVL [K43L] | 2.57 kcal/mol |
| TTVKLGDIKVTFDNPEKAKKYAQKLAKIYQLTVHVHGDTIHVR [K43R] | 2.36 kcal/mol |
| TTVKLGDIKVTFDNPEKAKKYAQKLAKIYQLTVHVHGDTIHVD [K43D] | 1.61 kcal/mol |
| TTVKLGDIKVTFDNPEKAKKYAQKLAKIYQLTVHVHGDTIHVE [K43E] | 1.91 kcal/mol |
| TTVKLGDIKVTFDNPEKAKKYAQKLAKIYQLTVHVHGDTIHVW [K43W] | 2.48 kcal/mol |
| TTVKLGDIKVTFDNPEKAKKYAQKLAKIYQLTVHVHGDTIHVS [K43S] | 2.17 kcal/mol |
| TTVKLGDIKVTFDNPEKAKKYAQKLAKIYQLTVHVHGDTIHVN [K43N] | 1.58 kcal/mol |
| TTVKLGDIKVTFDNPEKAKKYAQKLAKIYQLTVHVHGDTIHVY [K43Y] | 2.64 kcal/mol |
| TTVKLGDIKVTFDNPEKAKKYAQKLAKIYQLTVHVHGDTIHVC [K43C] | 3.65 kcal/mol |
| TTVKLGDIKVTFDNPEKAKKYAQKLAKIYQLTVHVHGDTIHVA [K43A] | 2.07 kcal/mol |
| TTVKLGDIKVTFDNPEKAKKYAQKLAKIYQLTVHVHGDTIHVT [K43T] | 2.48 kcal/mol |
| TTVKLGDIKVTFDNPEKAKKYAQKLAKIYQLTVHVHGDTIHVP [K43P] | 0.706 kcal/mol |
| TTVKLGDIKVTFDNPEKAKKYAQKLAKIYQLTVHVHGDTIHVQ [K43Q] | 2.16 kcal/mol |
| TTVKLGDIKVTFDNPEKAKKYAQKLAKIYQLTVHVHGDTIHVV [K43V] | 2.68 kcal/mol |
| TTVKLGDIKVTFDNPEKAKKYAQKLAKIYQLTVHVHGDTIHVG [K43G] | 2.51 kcal/mol |
| TTVKLGDIKVTFDNPEKAKKYAQKLAKIYQLTVHVHGDTIHVH [K43H] | 2.19 kcal/mol |
| TTVKLGDIKVTFDNPEKAKKYAQKLAKIYQLTVHVHGDTIHVI [K43I] | 2.62 kcal/mol |
| TTVKLGDIKVTFDNPEKAKKYAQKLAKIYQLTVHVHGDTIMVK [H41M] | 1.86 kcal/mol |
| TTVKLGDIKVTFDNPEKAKKYAQKLAKIYQLTVHVHGDTIPVK [H41P] | 0.283 kcal/mol |
| TTVKLGDIKVTFDNPEKAKKYAQKLAKIYQLTVHVHGDTIWVK [H41W] | 2.31 kcal/mol |
| TTVKLGDIKVTFDNPEKAKKYAQKLAKIYQLTVHVHGDTIRVK [H41R] | 1.25 kcal/mol |
| TTVKLGDIKVTFDNPEKAKKYAQKLAKIYQLTVHVHGDTIVVK [H41V] | 2.44 kcal/mol |

| Variant | folding stability dG |
| --- | --- |
| TTVKLGDIKVTFDNPEKAKKYAQKLAKIYQLTVHVHGDTIQVK [H41Q] | 1.55 kcal/mol |
| TTVKLGDIKVTFDNPEKAKKYAQKLAKIYQLTVHVHGDTINVK [H41N] | 1.32 kcal/mol |
| TTVKLGDIKVTFDNPEKAKKYAQKLAKIYQLTVHVHGDTISVK [H41S] | 1.65 kcal/mol |
| TTVKLGDIKVTFDNPEKAKKYAQKLAKIYQLTVHVHGDTIYVK [H41Y] | 2.6 kcal/mol |
| TTVKLGDIKVTFDNPEKAKKYAQKLAKIYQLTVHVHGDTILVK [H41L] | 2.17 kcal/mol |
| TTVKLGDIKVTFDNPEKAKKYAQKLAKIYQLTVHVHGDTITVK [H41T] | 2.23 kcal/mol |
| TTVKLGDIKVTFDNPEKAKKYAQKLAKIYQLTVHVHGDTIHTK [V42T] | 0.607 kcal/mol |
| TTVKLGDIKVTFDNPEKAKKYAQKLAKIYQLTVHVHGDTIHMK [V42M] | 1.7 kcal/mol |
| TTVKLGDIKVTFDNPEKAKKYAQKLAKIYQLTVHVHGDTIHHK [V42H] | 0.289 kcal/mol |
| TTVKLGDIKVTFDNPEKAKKYAQKLAKIYQLTVHVHGDTIHYK [V42Y] | 0.874 kcal/mol |
| TTVKLGDIKVTFDNPEKAKKYAQKLAKIYQLTVHVHGDTIHWK [V42W] | 0.918 kcal/mol |
| TTVKLGDIKVTFDNPEKAKKYAQKLAKIYQLTVHVHGDTIHQK [V42Q] | 0.328 kcal/mol |
| TTVKLGDIKVTFDNPEKAKKYAQKLAKIYQLTVHVHGDTIHDK [V42D] | 0.236 kcal/mol |
| TTVKLGDIKVTFDNPEKAKKYAQKLAKIYQLTVHVHGDTIHNK [V42N] | 0.487 kcal/mol |
| TTVKLGDIKVTFDNPEKAKKYAQKLAKIYQLTVHVHGDTIHEK [V42E] | 0.303 kcal/mol |
| TTVKLGDIKVTFDNPEKAKKYAQKLAKIYQLTVHVHGDTIHLK [V42L] | 2.83 kcal/mol |
| TTVKLGDIKVTFDNPEKAKKYAQKLAKIYQLTVHVHGDTIHSK [V42S] | 0.478 kcal/mol |
| TTVKLGDIKVTFDNPEKAKKYAQKLAKIYQLTVHVHGDTIHAK [V42A] | 0.602 kcal/mol |
| TTVKLGDIKVTFDNPEKAKKYAQKLAKIYQLTVHVHGDTIHIK [V42I] | 2.02 kcal/mol |
| TTVKLGDIKVTFDNPEKAKKYAQKLAKIYQLTVHVHGDTIHFK [V42F] | 1.95 kcal/mol |
| TTVKLGDIKVTFDNPEKAKKYAQKLAKIYQLTVHVHGDTIHGK [V42G] | 0.341 kcal/mol |
| TTVKLGDIKVTFDNPEKAKKYAQKLAKIYQLTVHVHGDTIHRK [V42R] | 0.284 kcal/mol |
| TTVKLGDIKVTFDNPEKAKKYAQKLAKIYQLTVHVHGDTIHPK [V42P] | 0.257 kcal/mol |
| TTVKLGDIKVTFDNPEKAKKYAQKLAKIYQLTVHVHGDTIHKK [V42K] | 0.386 kcal/mol |
